Publication PMC4174979 (DNA repair, 2014)

B1: BLM_(95–294) (domain or fragment, human, UniProt P54132 95-294, looked up)
chain: AGQETQRGGSKSLLPDFLQTPKEVVCTTQNTPTVKKSRDTALKKLEFSSSPDSLSTINDWDDMDDFDTSETSKSFVTPPQSHFVRVSTAQKSKKGKRNFFKAQLYTTNTVKTDLPPPSSESEQIDLTEEQKDDSEWLSSDVICIDDGPIAEVHINEDAQESDSLKTHLEDERDNSEKKKNLEEAELHSTEKVPCIEFDDD
B2: Sgs1_(103–322) (domain or fragment, S. cerevisiae, UniProt P35187 103-322, looked up)
chain: ADVPMVDIPASTSVVSNPRTPNGSKTHNFNTFRPHMASSLVENDSSRNLGSRNNNKSVIDNSSIGKQLENDIKLEVIRLQGSLIMALKEQSKLLLQKCSIIESTSLSEDAKRLQLSRDIRPQLSNMSIRIDSLEKEIIKAKKDGMSKDQSKGRSQVSSQDDNIISSILPSPLEYNTSSRNSNLTSTTATTVTKALAITGAKQNITNNTGKNSNNDSNNDD
B3: Sgs1_(157–257) (domain or fragment, S. cerevisiae, UniProt P35187 157-257, looked up)
chain: NKSVIDNSSIGKQLENDIKLEVIRLQGSLIMALKEQSKLLLQKCSIIESTSLSEDAKRLQLSRDIRPQLSNMSIRIDSLEKEIIKAKKDGMSKDQSKGRSQ

Biological target: the molecule itself
Test: SEC

Stoichiometry N, 6:
B1
B2
B3
